Source: the supplement of paper PMC10126150
± gives the standard deviation of the averaged measurements.

System: ATP
Experiment: switch fluorescence ratio, 500 uM ATP over buffer (Cy3 cluster intensity, sum of 5 cycles each) (fold (ratio)); higher = stronger signal-on switching upon ATP binding; sequences stand for … in TCGTCGGCAGCGTCAGATGTGTATAAGAGACAGTTTTTTTTTTTTTTTTTTTTTTTTT…TC
Settings: aptamer strand: ATP DNA aptamer (quencher-CACCTGGGGGAGTATTGCGGAGGAAGG + anchor), 100 nM annealed; ATP concentration: 500 uM
How it was run: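 Switching-strand clusters labelled with Cy3 on a modified Illumina MiSeq flow-cell were annealed to 100 nM quencher-labelled ATP aptamer, imaged in selection buffer, and re-imaged after 15 min with 500 uM ATP at 22 °C. This was done over five cycles with NaOH stripping and re-annealing in between. The fluorescence ratio is summed target-cycle over summed buffer-cycle Cy3 intensity per cluster, averaged per switch-domain sequence, excluding clusters outside 100-1000 RFU.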
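Further: ATP exposure 15 min at 22 °C before imaging.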

Row | Sequence | switch fluorescence ratio
1 | ACCGTTTCGT | 0.94 ± 0.029
2 | ACCTAAAATA | 1.07 ± 0.085
3 | ACCTAACAGG | 0.9728 ± 0.0095
4 | ACCTCCCGTT | 1.12 ± 0.064
5 | ACCTCGGACC | 1.09 ± 0.022
6 | ACCTCTTGGG | 0.9405 ± 0.0011
7 | ACCTGGCATC | 1.122 ± 0.0016
8 | ACCTGTTGTT | 0.991 ± 0.016
9 | ACCTTGGCTC | 1.1 ± 0.06
10 | ACCTTGGTTG | 0.9609 ± 0.0054
11 | ACCTTTACGT | 1.17 ± 0.033
12 | ACCTTTAGTG | 1.03 ± 0.019
13 | ACCTTTTTCA | 1.021 ± 0.0084
14 | ACGAACGTTG | 1.26 ± 0.089
15 | ACGAATGTGC | 1.022 ± 0.0097
16 | ACGAATGTTG | 0.9918 ± 0.0029
17 | ACGAATTCTG | 1.02 ± 0.042
18 | ACGACCTGCA | 1.51 ± 0.075
19 | ACGACTAGGT | 1.102 ± 0.008
20 | ACGACTGTTA | 1.04 ± 0.02
21 | ACGAGGATTG | 1.042 ± 0.0021
22 | ACGAGGGCGT | 1.03 ± 0.017
23 | ACGAGGGGGA | 1.05 ± 0.016
24 | ACGAGGTAAG | 1.079 ± 0.0031
25 | ACGAGGTAGA | 1.02 ± 0.021
26 | ACGATAGTTA | 0.992 ± 0.01

Row | Sequence | switch fluorescence ratio
27 | ACGATGGTTG | 0.9729 ± 0.0095
28 | ACGATTGTCT | 0.973 ± 0.037
29 | ACGCAATGAT | 5.18 ± 0.069
30 | ACGCACGATT | 1.37 ± 0.1
31 | ACGCAGAACG | 1.36 ± 0.074
32 | ACGCATTTGG | 1.1159 ± 0.00088
33 | ACGCCGCGTT | 1.42 ± 0.032
34 | ACGCCGTGTG | 0.999 ± 0.022
35 | ACGCGATAAC | 4.27 ± 0.27
36 | ACGCGGGGAG | 1.01 ± 0.034
37 | ACGCGGTTTT | 1.02 ± 0.027
38 | ACGCTGAGCA | 1.033 ± 0.008
39 | ACGCTGGAAG | 0.9892 ± 0.0067
40 | ACGCTGGGGG | 1.06 ± 0.041
41 | ACGCTTACTA | 1.44 ± 0.054
42 | ACGCTTGGGA | 0.998 ± 0.048
43 | ACGCTTTACC | 1.89 ± 0.11
44 | ACGCTTTATT | 1.08 ± 0.032
45 | ACGGAATTTG | 1.04 ± 0.019
46 | ACGGACGCAA | 3.95 ± 0.66
47 | ACGGAGAAAC | 1.35 ± 0.11
48 | ACGGAGCGGG | 1.35 ± 0.25
49 | ACGGAGGATA | 1.11 ± 0.014
50 | ACGGAGGGGG | 0.96 ± 0.042
51 | ACGGATGGGG | 0.997 ± 0.019
52 | ACGGATGTTG | 1.01 ± 0.059

Row | Sequence | switch fluorescence ratio
53 | ACGGCTCAT | 1.01 ± 0.037
54 | ACGGCTCTGG | 1.015 ± 0.0057
55 | ACGGGACAGC | 1.2 ± 0.064
56 | ACGGGACATT | 1.19 ± 0.033
57 | ACGGGATATA | 1.02 ± 0.058
58 | ACGGGCGACG | 1.02 ± 0.025
59 | ACGGGGCGTA | 0.98581 ± 0.00064
60 | ACGGGGGCTG | 0.996 ± 0.037
61 | ACGGGGGGTG | 1.01 ± 0.077
62 | ACGGGGTAAT | 1.22 ± 0.35
63 | ACGGGGTATT | 0.996 ± 0.028
64 | ACGGGGTCTA | 0.993 ± 0.027
65 | ACGGGGTGGA | 1 ± 0.037
66 | ACGGGGTTTG | 0.995 ± 0.018
67 | ACGGGTACGC | 1.01 ± 0.021
68 | ACGGGTGGCG | 0.95 ± 0.11
69 | ACGGGTTCCA | 1.08 ± 0.13
70 | ACGGGTTCGT | 1.01 ± 0.012
71 | ACGGTAACGT | 1.02 ± 0.0058
72 | ACGGTAGGGC | 1.03 ± 0.013
73 | ACGGTATTGG | 1.09 ± 0.044
74 | ACGGTCAGTC | 1.05 ± 0.077
75 | ACGGTCCTTT | 0.973 ± 0.038
76 | ACGGTCGACT | 1.05 ± 0.057
77 | ACGGTGTTGG | 1.02 ± 0.021
78 | ACGGTTCCTG | 1.001 ± 0.0061

Row | Sequence | switch fluorescence ratio
79 | ACGGTTGGT | 1.02 ± 0.012
80 | ACGGTTGTAC | 1.1813 ± 0.001
81 | ACGGTTGTGG | 1.01 ± 0.026
82 | ACGGTTTTCA | 0.977 ± 0.011
83 | ACGTAATTGT | 1.13 ± 0.061
84 | ACGTAATTTT | 1.17 ± 0.03
85 | ACGTAGAAAT | 1.35 ± 0.022
86 | ACGTAGTTTG | 1.04 ± 0.033
87 | ACGTATTTTG | 1.08 ± 0.045
88 | ACGTCTGAGG | 1.02 ± 0.029
89 | ACGTGCAGTT | 1.02 ± 0.012
90 | ACGTGCCGCA | 1.079 ± 0.0088
91 | ACGTGCTCGT | 0.991 ± 0.041
92 | ACGTGGGGCT | 1.05 ± 0.027
93 | ACGTGTAGGA | 1.0005 ± 0.00069
94 | ACGTGTAGGG | 1 ± 0.025
95 | ACGTGTCGGT | 1.028 ± 0.0037
96 | ACGTGTGGGG | 1.05 ± 0.034
97 | ACGTGTTCAT | 0.983 ± 0.018
98 | ACGTTATTTA | 1.1534 ± 0.0011
99 | ACGTTCGCGG | 0.985 ± 0.028
100 | ACGTTCGTTG | 0.9908 ± 0.0096
101 | ACGTTCTGTT | 1.02 ± 0.023
102 | ACGTTTGTTT | 0.971 ± 0.049
103 | ACTAAACGAG | 1.062 ± 0.0078
104 | ACTACTGGCT | 1.047 ± 0.0089

Row | Sequence | switch fluorescence ratio
105 | ACTACTGGGA | 0.976 ± 0.041
106 | ACTACTTTCG | 1.03 ± 0.034
107 | ACTAGAGCGA | 1.11 ± 0.11
108 | ACTAGAGGAC | 1 ± 0.04
109 | ACTAGATACG | 1.04 ± 0.018
110 | ACTAGCGGCG | 1.05 ± 0.024
111 | ACTAGGAATC | 1.04 ± 0.019
112 | ACTAGGCAAG | 1.13 ± 0.018
113 | ACTAGTGTCA | 1 ± 0.04
114 | ACTATAGTGT | 1.02 ± 0.022
115 | ACTATGCGGG | 0.982 ± 0.017
116 | ACTATGGCTG | 0.957 ± 0.045
117 | ACTATGGTTA | 0.997 ± 0.055
118 | ACTATTACGG | 1.18 ± 0.0094
119 | ACTCACTGGT | 1.23 ± 0.043
120 | ACTCATGTAA | 1.03 ± 0.015
121 | ACTCATGTT | 0.996 ± 0.012
122 | ACTCATTTGG | 1.001 ± 0.0087
123 | ACTCCATACA | 1.21 ± 0.04
124 | ACTCCCGAAT | 1.865 ± 0.0096
125 | ACTCGACAGG | 1.8 ± 0.013
126 | ACTCGAGGAT | 1.03 ± 0.013
127 | ACTCGCTGGG | 1.11 ± 0.018
128 | ACTCGTGTAG | 1.04 ± 0.022
129 | ACTCTGGGAG | 1.03 ± 0.022
130 | ACTCTGGGGT | 1.03 ± 0.015

Row | Sequence | switch fluorescence ratio
131 | ACTCTGGTAA | 1.065 ± 0.0032
132 | ACTCTTATCG | 1.02 ± 0.054
133 | ACTCTTGTAT | 1.045 ± 0.0058
134 | ACTGAATCCT | 1.08 ± 0.028
135 | ACTGAGCCTG | 1.056 ± 0.0083
136 | ACTGAGGGGG | 1 ± 0.01
137 | ACTGCAGAAC | 1.9 ± 0.34
138 | ACTGCCATCG | 1.1 ± 0.023
139 | ACTGGGCCTT | 1.031 ± 0.0083
140 | ACTGGGCGGA | 0.996 ± 0.015
141 | ACTGGGGGAC | 1.04 ± 0.036
142 | ACTGGGGGTG | 1.07 ± 0.086
143 | ACTGGGTTTC | 0.99 ± 0.054
144 | ACTGGTATAG | 1.041 ± 0.0019
145 | ACTGGTTTTG | 1.01 ± 0.022
146 | ACTGTAACGG | 1.19 ± 0.034
147 | ACTGTCGCCA | 1.023 ± 0.0059
148 | ACTGTCTAAT | 1.01 ± 0.026
149 | ACTGTGCTTT | 1.015 ± 0.0097
150 | ACTGTGGAAT | 1.07 ± 0.022
151 | ACTGTGGGGA | 1.01 ± 0.013
152 | ACTGTTTGGA | 0.995 ± 0.0037
153 | ACTTAAAATT | 0.996 ± 0.044
